Each block holds one molecule with its values, some of them ahead of it.
Assays:
Format in all cases: biochemical
[1] = biological target: T1, PA-mST6Gal II (mouse ST6Gal II) (Mus musculus, UniProt Q76K27, R48S); assay: Sialyltransferase activity of PA-mST6Gal II toward acceptor substrates; details: PA-mST6Gal II; incorporation with Galβ1,4GlcNAc taken as 100; 0.5 mg/ml glycolipids, 1 mg/ml glycoproteins and oligosaccharides
T1 construct: amino acids 31-524 in the case of mouse ST6Gal II; signal peptide of mouse immunoglobulin IgM (N); made in house; host or cells: COS-7 cells, transient expression of pcDSA-mST6Gal II; protein recovered from medium on IgG-Sepharose
T1 sequence (Q76K27 31-524 R48S): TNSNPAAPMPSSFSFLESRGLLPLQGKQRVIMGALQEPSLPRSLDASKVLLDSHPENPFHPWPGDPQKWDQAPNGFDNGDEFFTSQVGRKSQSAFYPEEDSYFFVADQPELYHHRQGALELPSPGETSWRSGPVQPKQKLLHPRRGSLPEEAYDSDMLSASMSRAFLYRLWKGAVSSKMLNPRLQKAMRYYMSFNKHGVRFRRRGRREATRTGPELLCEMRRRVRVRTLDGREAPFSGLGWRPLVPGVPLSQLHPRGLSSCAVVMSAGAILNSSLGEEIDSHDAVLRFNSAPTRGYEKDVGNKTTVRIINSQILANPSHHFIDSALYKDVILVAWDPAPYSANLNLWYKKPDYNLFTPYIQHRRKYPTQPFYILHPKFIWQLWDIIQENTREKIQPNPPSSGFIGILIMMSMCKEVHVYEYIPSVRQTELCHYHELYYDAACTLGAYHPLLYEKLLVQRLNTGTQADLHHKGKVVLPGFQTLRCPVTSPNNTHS
Experimental: Using each expression vector and lipofectamine (Invitrogen), transient expression was carried out in COS-7 cells (Kojima, N. et al. (1995) FEBS Lett. 360, 1-4). The proteins of the present invention secreted from the cells into which each expression vector had been introduced were named as PA-hST6Gal II (human) and PA-mST6Gal II (mouse). PA-hST6Gal II and PA-mST6Gal II were adsorbed to IgG-Sepharose (Amersham Pharmacia Biotech), and were then recovered from medium. Sialyltransferase activity was measured as follows according to the method of Lee et al. (Lee, Y.-C. et al. (1999) J Biol. Chem. 274, 11958-11967). A reaction mixture (10 μl) containing 50 mM MES buffer (pH 6.0), 1 mM MgCl2, 1 mM CaCl2, 0.5% Triton CF-54, 100 μM CMP-[^14C]-NeuAc, a substrate sugar chain (which was added at 0.5 mg/ml in the case of glycolipids, and at 1 mg/ml in the case of glycoproteins or oligosaccharides), and a PA-hST6Gal II or PA-mST6Gal II suspension, was incubated at 37° C. for 3 to 20 hours. Thereafter, in the case of glycolipids, the reaction product was purified with a C-18 column (Sep-Pak Vac 100 mg; Waters) and the purified product was used as a sample. In the case of oligosaccharides or glycoproteins, the reaction product was directly used as a sample. Thus, the obtained sample was subjected to analysis. In the case of oligosaccharides or glycolipids, the sample was spotted on a silica gel 60 HPTLC plate (Merck), and it was then developed with a developing solvent consisting of 1-propanol:ammonia water:water=6:1:2.5 (for oligosaccharides), or a developing solvent consisting of chloroform:methanol: 0.02% CaCl2=55:45:10 (for glycolipids). In the case of glycoproteins, analysis was carried out by SDS-polyacrylamide gel electrophoresis. The obtained radioactivities were visualized with a BAS2000 radio image analyzer (Fuji Film) and then quantified.

mouse ST8Sia III = biological target: T2, mouse ST8Sia III (Mus musculus, UniProt Q64689); assay: N-glycanase treatment of Fetuin sialylated with [14C]-NeuAc by mouse ST8Sia III
T2 sequence (Q64689 1-380): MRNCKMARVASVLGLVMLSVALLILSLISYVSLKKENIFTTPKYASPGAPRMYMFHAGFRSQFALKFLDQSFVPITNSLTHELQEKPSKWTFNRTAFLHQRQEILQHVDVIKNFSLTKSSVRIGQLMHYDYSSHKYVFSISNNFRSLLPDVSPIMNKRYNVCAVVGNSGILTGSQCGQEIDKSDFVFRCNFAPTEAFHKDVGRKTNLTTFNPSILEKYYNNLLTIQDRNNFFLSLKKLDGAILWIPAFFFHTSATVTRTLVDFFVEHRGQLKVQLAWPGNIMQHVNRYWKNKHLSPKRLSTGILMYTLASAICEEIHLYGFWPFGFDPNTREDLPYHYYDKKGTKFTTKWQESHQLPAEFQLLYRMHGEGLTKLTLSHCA
Experimental: (§1) In FIG. 4, Fetuin was [^14C]-NeuAc-incorporated by ST8Sia III or ST8Sia VI and then treated with N-glycanase. The [^14C]-NeuAc-incorporated Fetuin was treated with N-glycanase, and the treated product was analyzed by SDS-PAGE. Thereafter, it was visualized with a BAS2000 radio image analyzer.
(§2) It was found by an N-glycanase treatment that when Fetuin was used as a substrate, the majority of sialic acid, which was newly introduced by PA-mST8Sia VI, was incorporated into O-glycans (FIG. 4). That is, when Fetuin was sialylated by PA-mST8Sia VI with [^14C]-NeuAc, and the sialylated product was then treated with N-glycanase, which releases N-glycans from a peptide portion. The majority (82.7%) of radioactivity was still kept in the Fetuin after this treatment. […] On the other hand, the same experiment was carried out using mouse ST8Sia III, which used N-glycans of Fetuin as substrates.

PA-mST8Sia VI = biological target: T3, PA-mST8Sia VI (Mus musculus, UniProt Q8K4T1); assay: N-glycanase treatment of Fetuin sialylated with [14C]-NeuAc by PA-mST8Sia VI; details: sialylated by PA-mST8Sia VI with [14C]-NeuAc; shows incorporation into O-glycans
T3 construct: amino acids 26-398 in the case of mouse ST8Sia VI; signal peptide of mouse immunoglobulin IgM (N); made in house; host or cells: COS-7 cells, transient expression of pcDSA-mST8Sia VI; protein recovered from medium on IgG-Sepharose
T3 sequence (Q8K4T1 26-398): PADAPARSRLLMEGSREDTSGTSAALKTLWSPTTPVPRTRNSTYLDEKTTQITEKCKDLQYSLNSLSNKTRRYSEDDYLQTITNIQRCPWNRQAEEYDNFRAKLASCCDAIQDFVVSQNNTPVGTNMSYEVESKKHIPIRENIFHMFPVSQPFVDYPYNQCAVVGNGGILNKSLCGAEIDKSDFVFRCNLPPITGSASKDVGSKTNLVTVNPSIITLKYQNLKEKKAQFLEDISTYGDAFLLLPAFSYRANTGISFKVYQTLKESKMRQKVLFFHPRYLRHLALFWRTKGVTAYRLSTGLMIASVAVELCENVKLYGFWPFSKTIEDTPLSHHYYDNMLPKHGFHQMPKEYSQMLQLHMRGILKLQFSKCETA
Experimental: as §1, §2

Relative rate (%) Mouse ST6Gal II [1]: 0.75%
Molecule: α1-Acid glycoprotein: glycoprotein acceptor substrate purchased from Sigma

Relative rate (%) Mouse ST6Gal II [1]: 0%
Molecule: Galβ1,4Glcβ1-Cer [Lactosylceramide]

Relative rate (%) Mouse ST6Gal II [1]: 0%
B1: Ovomucoid: glycoprotein acceptor substrate which contains only N-glycans (protein, UniProt P01005 25-210, looked up)
Ovomucoid: AEVDCSRFPNATDKEGKDVLVCNKDLRPICGTDGVTYTNDCLLCAYSIEFGTNISKEHDGECKETVPMNCSSYANTTSEDGKVMVLCNRAFNPVCGTDGVTYDNECLLCAHKVEQGASVDKRHDGGCRKELAAVSVDCSEYPKPDCTAEDRPLCGSDNKTYGNKCNFCNAVVESNGTLTLSHFGKC

The remaining lines, values behind:

Molecule: Asialofetuin: asialo glycoprotein acceptor substrate purchased from Sigma
Relative rate (%) Mouse ST6Gal II [1]: 21.0%

Molecule: Asialo- α1-Acid glycoprotein: desialylated α1-acid glycoprotein prepared at 80° C. for 1 hour in 0.02 N HCl
Relative rate (%) Mouse ST6Gal II [1]: 12.3%

Molecule: NeuAcα2,3Galβ1,4Glcβ1-Cer [GM3]
Relative rate (%) Mouse ST6Gal II [1]: 0%

Molecule: Fetuin: glycoprotein acceptor substrate containing both O-glycans and N-glycans, purchased from Sigma
Relative rate (%) Mouse ST6Gal II [1]: 0%
radioactivity in Fetuin after N-glycanase treatment (in words) (mouse ST8Sia III): completely disappeared
radioactivity still kept in the Fetuin after N-glycanase treatment (PA-mST8Sia VI): 82.7%

Molecule: Galβ1,3GalNAcβ1,4(NeuAcα2,3)Galβ1,4Glcβ1-Cer [GM1a]
Relative rate (%) Mouse ST6Gal II [1]: 0%

B2: Asialoovomucoid: desialylated ovomucoid prepared at 80° C. for 1 hour in 0.02 N HCl (protein, UniProt P01005 25-210, looked up)
Ovomucoid: B1 Ovomucoid
modifications: desialylated
notes: desialylated ovomucoid prepared at 80° C. for 1 hour in 0.02 N HCl
Relative rate (%) Mouse ST6Gal II [1]: 0%

— patent publication US20060057696A1, “Sugar chain synthases” (priority 2002, published 2006)
